Results from patent US5532348 (United States of America, dated 1996).

Experiments:
[1] = target: T1, GST fusion to HPV 11 E6 (human papillomavirus type 11, UniProt P04019); experiment: GST pull-down of 35S-labelled translate, no p53
T1 sequence: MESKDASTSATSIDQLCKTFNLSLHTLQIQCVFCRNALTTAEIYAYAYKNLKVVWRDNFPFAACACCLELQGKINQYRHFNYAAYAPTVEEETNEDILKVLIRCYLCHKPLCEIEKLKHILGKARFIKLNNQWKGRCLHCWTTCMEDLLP

[2] = target: GST (with no fusion) (Schistosoma japonicum (Blood fluke), UniProt P08515 = GST); experiment: GST pull-down of 35S-labelled translate, no p53
[3] = target: T2, HPV11 E6, wheat germ extract translated (human papillomavirus type 11, UniProt P04019); experiment: GST-E6-AP fusion on glutathione-Sepharose, 35S-labelled E6
T2 sequence: T1 sequence

[4] = target: GST-p53 (glutathione S-transferase fusion of wild-type p53) (Homo sapiens (Human), UniProt P04637); experiment: GST-p53 pull-down of 35S-labelled E6-AP variant in the presence of HPV16 E6

B1: 95 kd in vitro translated form of E6-AP (amino acids 37 to 865 of SEQ ID NO:1) (other)
chain: EACTNEFCASCPTFLRMDNKAAAIKALELYKINAKLCDPHPSKKGASSAYLENSKGAPNNSCSEIKMNKKGARIDFKDVTYLTEEKVYEILELCREREDYSPLIRVIGRVFSSAEALVQSFRKVKQHTKEELKSLQAKDEDKDEDEKEKAACSAAAMEEDSEEASSSRIGDSSQGDNNLQKLGPDDVSVDIDAIRRVYTRLLSNEKIETAFLNALVYLSPNVECDLTYHNVYSRDPNYLNLFIIGMENRNLHSPEYLEMALPLFCKAMSKLPLAAQGKLIRLWSKYNADQIRRMMETFQQLITYKVISNEFNSRNLVNDDDAIVAASKCLKMVYYANVVGGEVDTNHNEEDDEEPIPESSELTLQELLGEERRNKKGLRVDPLETELGVKTLDCRKPLIPFEEFINEPLNEVLEMDKDYTFFKVETENKFSFMTCPFILNAVTKNLGLYYDNRIRMYSERRITVLTSLVQGQQLNPYLRLKVRRKHIIDDALVRLEMIAMENPADLKKQLYVEFEGEQGVDEGGVSKEFFQLVVEEIFNPDIGMFTYDESTKLFWFNPSSFETEGQFTLIGIVLGLAIYNNCILDVHGPMVVYRKLMGKKGTFRDLGDSHPVLYQSLKDLLEYVGNVEDDMMITFQISQTNLFQNPMMYDLKENGDKIPITNENRKEFVNLYSDYILNKSVEKQFKAFRRGRHMVTNESPLKYLFRPEEIELLICGSRNLDFQALEETTEYDGGYTRDSVLIREFWEIVHSFTDEQKRLFLQFTTGRDRAPVGGLGKLKMIIAKNGPDTERLPTSHTCFNVLLLPEYSSKEKLKERLLKAITYAKGFGM
binding result [1]: no binding
binding result [2]: no binding

B2: GST-E6-AP fusion protein with amino acids 371 to 440 of SEQ ID NO:1 (SEQ ID NO:2) (other)
chain: ANVVGGEVDTNHNEEDDEEPIPESSELTLQELLGEERRNKKGLRVDPLETELGVKTLDCRKPLIPFEEFI
binding result [3]: no binding

B3: GST-75 kDa E6-AP fusion protein (amino acids 212-865 of SEQ ID NO:1) (other)
chain: DNNLQKLGPDDVSVDIDAIRRVYTRLLSNEKIETAFLNALVYLSPNVECDLTYHNVYSRDPNYLNLFIIGMENRNLHSPEYLEMALPLFCKAMSKLPLAAQGKLIRLWSKYNADQIRRMMETFQQLITYKVISNEFNSRNLVNDDDAIVAASKCLKMVYYANVVGGEVDTNHNEEDDEEPIPESSELTLQELLGEERRNKKGLRVDPLETELGVKTLDCRKPLIPFEEFINEPLNEVLEMDKDYTFFKVETENKFSFMTCPFILNAVTKNLGLYYDNRIRMYSERRITVLTSLVQGQQLNPYLRLKVRRKHIIDDALVRLEMIAMENPADLKKQLYVEFEGEQGVDEGGVSKEFFQLVVEEIFNPDIGMFTYDESTKLFWFNPSSFETEGQFTLIGIVLGLAIYNNCILDVHGPMVVYRKLMGKKGTFRDLGDSHPVLYQSLKDLLEYVGNVEDDMMITFQISQTNLFQNPMMYDLKENGDKIPITNENRKEFVNLYSDYILNKSVEKQFKAFRRGRHMVTNESPLKYLFRPEEIELLICGSRNLDFQALEETTEYDGGYTRDSVLIREFWEIVHSFTDEQKRLFLQFTTGRDRAPVGGLGKLKMIIAKNGPDTERLPTSHTCFNVLLLPEYSSKEKLKERLLKAITYAKGFGM
binding result [3]: no binding

B4: E6-AP N-terminally truncated form beginning at amino acid 322 (other)
chain: YNADQIRRMMETFQQLITYKVISNEFNSRNLVNDDDAIVAASKCLKMVYYANVVGGEVDTNHNEEDDEEPIPESSELTLQELLGEERRNKKGLRVDPLETELGVKTLDCRKPLIPFEEFINEPLNEVLEMDKDYTFFKVETENKFSFMTCPFILNAVTKNLGLYYDNRIRMYSERRITVLTSLVQGQQLNPYLRLKVRRKHIIDDALVRLEMIAMENPADLKKQLYVEFEGEQGVDEGGVSKEFFQLVVEEIFNPDIGMFTYDESTKLFWFNPSSFETEGQFTLIGIVLGLAIYNNCILDVHGPMVVYRKLMGKKGTFRDLGDSHPVLYQSLKDLLEYVGNVEDDMMITFQISQTNLFQNPMMYDLKENGDKIPITNENRKEFVNLYSDYILNKSVEKQFKAFRRGRHMVTNESPLKYLFRPEEIELLICGSRNLDFQALEETTEYDGGYTRDSVLIREFWEIVHSFTDEQKRLFLQFTTGRDRAPVGGLGKLKMIIAKNGPDTERLPTSHTCFNVLLLPEYSSKEKLKERLLKAITYAKGFGM
binding result [4]: no binding
